The chains are these.
B1: SLTETIEGV (peptide)
peptide: SLTETIEGV
B2: SLTIDGIYYV (peptide)
peptide: SLTIDGIYYV
B3: SLTIDGIRYV (peptide)
peptide: SLTIDGIRYV
B4: SLTEYLQNV (peptide)
peptide: SLTEYLQNV

The assay deals with T1, HLA-A*02:01 (human).
T1 construct: monomers captured on streptavidin plates; also called MHC class I
The assay is described as follows: UV peptide exchange ELISA. An excerpt:
Candidate peptides for T cell based therapies according to the present invention were further tested for their MHC binding capacity (affinity). The individual peptide-MHC complexes were produced by UV-ligand exchange, where a UV-sensitive peptide is cleaved upon UV-irradiation, and exchanged with the peptide of interest as analyzed. Only peptide candidates that can effectively bind and stabilize the peptide-receptive MHC molecules prevent dissociation of the MHC complexes. To determine the yield of the exchange reaction, an ELISA was performed based on the detection of the light chain (p2m) of stabilized MHC complexes.
96 well MAXISorp plates (NUNC) were coated over night with 2 μg/ml streptavidin in PBS at room temperature, washed 4× and blocked for 1 h at 37° C. in 2% BSA containing blocking buffer. […] Peptide-MHC monomers of the UV-exchange reaction were diluted 100 fold in blocking buffer. Samples were incubated for 1h at 37° C., washed four times, incubated with 2 μg/ml HRP conjugated anti-p2m for 1h at 37° C., washed again and detected with TMB solution that is stopped with […]. Absorption was measured at 450 nm.
In general terms: In an ELISA, binding on a coated surface is turned into a signal by an enzyme label.
B1 gave a peptide exchange yield of 20 to 50%. As for B2, the peptide exchange yield was no less than 75%. Under B3 stands 50 to 75%; under B4, no less than 75%.

The record behind these values is US20170037110A1 (IMMATICS BIOTECHNOLOGIES, published 2017).
